# Data taken from article doi:10.1101/2021.10.10.463828 (bioRxiv, 2021).
# B1: Tim23, overexpressed (natural protein)
# chain: MSWLFGDKTPTDDANAAVGGQDTTKPKELSLKQSLGFEPNINNIISGPGGMHVDTARLHPLAGLDKGVEYLDLEEEQLSSLEGSQGLIPSRGWTDDLCYGTGAVYLLGLGIGGFSGMMQGLQNIPPNSPGKLQLNTVLNHITKRGPFLGNNAGILALSYNIINSTIDALRGKHDTAGSIGAGALTGALFKSSKGLKPMGYSSAMVAAACAVWCSVKKRLLEK
# B2: Tim17 with an affinity tag, overexpressed (natural protein)
# chain: MSADHSRDPCPIVILNDFGGAFAMGAIGGVVWHGIKGFRNSPLGERGSGAMSAIKARAPVLGGNFGVWGGLFSTFDCAVKAVRKREDPWNAIIAGFFTGGALAVRGGWRHTRNSSITCACLLGVIEGVGLMFQRYAAWQAKPMAPPLPEAPSSQPLQA
# modifications: disulfide bond between Cys10 and Cys77
# Columns and labels:
# [1] = biological target: B1; test: cryo-EM structure
# [2] = biological target: Tim17 with an affinity tag, overexpressed (S. cerevisiae) (UniProt P39515); test: cryo-EM structure
# [3] = biological target: B2; test: cryo-EM structure
# [4] = biological target: B1; test: pull-down
molecule,measurement,setting,value
"Tim44, overexpressed (natural protein)",stoichiometry N,[1],1
same,stoichiometry N,[2],1
B1,stoichiometry N,[3],1
B2,binding result,[4],binds
